These results are taken from paper PMC12212138.

The target in data set [1] is T1, PARP4 BRCT-WGR-CAT WT (human) (UniProt Q9UKK3).
T1 sequence: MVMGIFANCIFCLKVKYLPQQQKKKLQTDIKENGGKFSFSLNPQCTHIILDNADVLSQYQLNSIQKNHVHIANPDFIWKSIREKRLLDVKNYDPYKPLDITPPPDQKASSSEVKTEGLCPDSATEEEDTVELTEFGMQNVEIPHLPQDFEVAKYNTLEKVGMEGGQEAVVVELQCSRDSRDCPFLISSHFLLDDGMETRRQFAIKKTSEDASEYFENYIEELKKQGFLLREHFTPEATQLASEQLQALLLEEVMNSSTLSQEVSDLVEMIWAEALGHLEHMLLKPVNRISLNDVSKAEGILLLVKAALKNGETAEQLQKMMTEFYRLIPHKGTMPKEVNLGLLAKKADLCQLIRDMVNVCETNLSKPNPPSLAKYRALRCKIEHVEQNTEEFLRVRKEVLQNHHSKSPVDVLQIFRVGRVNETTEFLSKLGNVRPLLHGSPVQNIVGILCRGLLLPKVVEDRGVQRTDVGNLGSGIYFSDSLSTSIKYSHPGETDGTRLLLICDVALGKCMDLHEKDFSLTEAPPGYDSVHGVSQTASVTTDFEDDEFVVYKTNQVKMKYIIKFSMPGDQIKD
Briefly: EMSA. To be noted: FP: 50 mM Tris pH 7.5, 50 mM NaCl, 1 mM MgCl2, 0.05% NP40, 2 mM DTT, 5% glycerol, 25 ug/ml BSA, room temp 30 min; EMSA: 50 mM Tris pH 7.5, 50 mM NaCl, 4% ….

A further data set deals with T2, PARP4 WGR-CAT (human) (UniProt Q9UKK3).
T2 sequence: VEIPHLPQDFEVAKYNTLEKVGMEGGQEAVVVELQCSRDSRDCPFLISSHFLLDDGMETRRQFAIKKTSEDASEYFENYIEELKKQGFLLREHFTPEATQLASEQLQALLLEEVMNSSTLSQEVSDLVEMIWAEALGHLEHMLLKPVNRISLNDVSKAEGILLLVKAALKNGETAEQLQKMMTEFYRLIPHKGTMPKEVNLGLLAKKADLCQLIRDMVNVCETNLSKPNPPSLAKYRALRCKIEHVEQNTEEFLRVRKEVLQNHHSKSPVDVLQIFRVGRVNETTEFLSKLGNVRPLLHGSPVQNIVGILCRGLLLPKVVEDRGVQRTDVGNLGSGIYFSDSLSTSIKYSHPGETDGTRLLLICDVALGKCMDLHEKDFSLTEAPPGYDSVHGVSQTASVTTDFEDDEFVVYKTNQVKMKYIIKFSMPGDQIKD
Briefly: FP. To be noted: FP: 50 mM Tris pH 7.5, 50 mM NaCl, 1 mM MgCl2, 0.05% NP40, 2 mM DTT, 5% glycerol, 25 ug/ml BSA, room temp 30 min; EMSA: 50 mM Tris pH 7.5, 50 mM NaCl, 4% …. In general terms: Mobility shift assays separate free from complexed probe on a gel.

By Kd is commonly meant the constant that tells how readily two partners part at equilibrium. A high value points to lower affinity.

CCGCGGGC / GCUCAGCGG [Probe 3] gave a Kd in data set [1] of 11 µM.
Same read-out and setting: the result for CCGCGGGC / GCUCGCGG [Probe 4] reads 7 µM.
For the sequence “GGCUGGCUUUAGCUCAGCGGUUACUUCGCGUGUCAUCAAACCACCUCUCUGGGUUGUUCGAGACCCGCGGGCGCUCUCCAGCCCUCUU [vtRNA1-3]”, in the data set with PARP4 WGR-CAT (human), the Kd came to 93 µM.
